Key:
[1] = molecular target: FITC-labeled ACE2(775–790) peptide, unphosphorylated (human); assay: fluorescence polarisation
[2] = molecular target: FITC-labeled ACE2(775–790) peptide, pSer783 (human); assay: fluorescence polarisation
[3] = molecular target: AP2 μ2 160-435 (UniProt Q96CW1); assay: fluorescence polarisation
[4] = molecular target: FITC-labeled ACE2(775–790) peptide, pTyr781 (human); assay: fluorescence polarisation
[5] = molecular target: […]2 ATG8 (2–115) (human) (UniProt P60520); assay: fluorescence polarisation
Sequence of […]2 ATG8 (2–115) (human) (P60520 2-115): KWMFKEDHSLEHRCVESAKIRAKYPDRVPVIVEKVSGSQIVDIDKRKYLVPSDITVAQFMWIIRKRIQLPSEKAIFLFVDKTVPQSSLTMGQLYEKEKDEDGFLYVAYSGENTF

[6] = molecular target: MAP1LC3A ATG8 (2–119) (human) (UniProt Q9H492); assay: fluorescence polarisation
[7] = molecular target: MAP1LC3B ATG8 (2–119) (human) (UniProt Q9GZQ8); assay: fluorescence polarisation
[8] = molecular target: MAP1LC3C ATG8 (2–125) (human) (UniProt Q9BXW4); assay: fluorescence polarisation
Sequence of MAP1LC3C ATG8 (2–125) (human) (Q9BXW4 2-125): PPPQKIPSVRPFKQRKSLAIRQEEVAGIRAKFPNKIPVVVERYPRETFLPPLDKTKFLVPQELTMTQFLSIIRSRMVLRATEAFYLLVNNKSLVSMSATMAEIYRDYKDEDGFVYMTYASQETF

[9] = molecular target: GABARAP ATG8 (2-115) (human) (UniProt O95166); assay: fluorescence polarisation
Sequence of GABARAP ATG8 (2-115) (human) (O95166 2-115): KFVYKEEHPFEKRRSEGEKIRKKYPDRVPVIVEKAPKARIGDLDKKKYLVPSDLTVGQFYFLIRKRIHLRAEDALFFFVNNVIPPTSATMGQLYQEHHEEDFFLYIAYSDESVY

[10] = molecular target: AP2 μ2 160-435 (UniProt Q96CW1); assay: FP displacement of FITC-ATG9A probe; settings: reference: unphosphorylated peptide; sites Y781

| Substance | Kd [1] | Kd [2] | Kd [4] | Ki [6] | Ki [7] | Ki [8] | other results |
| --- | --- | --- | --- | --- | --- | --- | --- |
| FYN SH2 (142–251) (from UniProt P06241 142-251) (domain or fragment) | > 100 µM | > 100 µM | – | – | – | – | – |
| ACE2(775–790) peptide, unphosphorylated, unlabeled (displacing peptide) | – | – | – | – | – | – | Ki [3]: 101 µM |
| MAP1LC3A ATG8 (2–119) (from UniProt Q9H492 2-119) (domain or fragment) | > 100 µM | > 100 µM | > 100 µM | – | – | – | – |
| integrin β3 tail peptide, pTyr785 | – | – | – | 38 µM | 81 µM | 83 µM | Ki [5]: 89 µM |
| integrin β3 tail peptide, pSer778 | – | – | – | 29.4 µM | > 100 µM | 16.1 µM | – |
| GABARAP ATG8 (2-115) (from UniProt O95166 2-115) (domain or fragment) | > 100 µM | > 100 µM | > 100 µM | – | – | – | – |
| NCK1 SH2 (275–377) (from UniProt P16333 275-377) (domain or fragment) | > 100 µM | > 100 µM | > 100 µM | – | – | – | – |
| integrin β3 tail peptide, pThr779/pTyr785 | – | – | – | 8.5 µM | 15 µM | 8 µM | Ki [9]: 17.8 µM |
| AP2 μ2 (160–435) (from UniProt Q96CW1 160-435) (domain or fragment) | 60 µM | 30 µM | > 100 µM | – | – | – | – |
| integrin β3 tail peptide, pThr777 | – | – | – | > 100 µM | > 100 µM | 73 µM | Ki [9]: 47 µM |
| integrin β3 tail peptide, pThr779 | – | – | – | > 100 µM | > 100 µM | 82 µM | Ki [5]: > 100 µM |
| integrin β3 tail peptide, unphosphorylated | – | – | – | > 100 µM | > 100 µM | > 100 µM | Ki [5]: > 100 µM; Ki [9]: > 100 µM |
| ACE2 775-790 (from UniProt Q9BYF1) pTyr781 peptide | – | – | – | – | – | – | Ki [10]: lost; reference 101 ± 5 |

Reference: publication PMC7928716
